Assay results from publication doi:10.1101/2022.11.11.516238.

Tests used:
[1] = molecular target: T1, NhaR (Vibrio parahaemolyticus) (UniProt Q87S97); assay: EMSA
T1 sequence: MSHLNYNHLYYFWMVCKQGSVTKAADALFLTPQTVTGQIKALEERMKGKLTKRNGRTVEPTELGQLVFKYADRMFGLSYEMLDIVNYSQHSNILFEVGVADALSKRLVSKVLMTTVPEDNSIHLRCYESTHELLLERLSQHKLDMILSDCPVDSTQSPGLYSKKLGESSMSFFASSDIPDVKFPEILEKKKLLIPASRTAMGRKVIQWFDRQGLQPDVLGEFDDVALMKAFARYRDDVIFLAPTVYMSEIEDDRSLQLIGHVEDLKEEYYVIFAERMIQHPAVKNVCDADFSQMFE

[2] = molecular target: T2, LeuO (Vibrio parahaemolyticus) (UniProt Q87SS2); assay: EMSA
T2 sequence: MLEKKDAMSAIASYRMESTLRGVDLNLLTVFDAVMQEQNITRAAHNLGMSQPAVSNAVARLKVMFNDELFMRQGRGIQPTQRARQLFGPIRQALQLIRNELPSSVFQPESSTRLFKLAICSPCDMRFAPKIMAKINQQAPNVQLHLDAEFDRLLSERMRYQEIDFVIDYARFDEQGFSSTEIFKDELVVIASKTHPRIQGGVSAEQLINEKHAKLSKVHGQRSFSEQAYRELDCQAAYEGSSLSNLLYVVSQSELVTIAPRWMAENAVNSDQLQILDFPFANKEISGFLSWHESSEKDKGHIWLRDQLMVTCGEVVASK

Row | Sequence | binding [1] | binding [2]
1 | CCAAGGTGCTGATGTGATCATTTTGAAATACATATCCTTTGACGTCTAATTAAATTTCGTATTTATTATGGACATTCTTTACGGTTGAAAATCAAATAATCTGCGTTTTAATCTGGATTAATGTG (double strand) [PectA probe 1A] | binds | binds
2 | CCACGACGACAAAACTAACCTTAAAACGGCATGCGAAAGTGTGCCGTTTTTTTATGTAAAAAACCTTAAGTCCCCTCTTTGAAACCCCACTGCATTCTGACTCAT (double strand) [PectA probe 1C] | binds | binds
